Source: patent publication US20150344570A1 (published 2015)

What was measured:
FcγRIIIa [1] = target: T1, FcγRIIIa (human, UniProt P08637 17-208); test: ratio of SPR KDs: KD of GpH7-TA7/GpH7-B78/GpL16-k0 divided by KD of this antibody
T1 construct: extracellular domain; also called FcgRIIIa; CD16A; not shown: His tag attached to the C terminus
Excerpt: First, it was considered which H chain should be introduced with Y296W. GpH7-TA52 (SEQ ID NO: 44) resulting from the introduction of the mutation Y296W into GpH7-TA7 was constructed, and expressed and prepared in combination with GpH7-B78 according to the method described in Reference Example 1. Furthermore, GpH7-TA58 (SEQ ID NO: 45) resulting from the introduction of Y296W into GpH7-B78 was constructed, and expressed and prepared in combination with GpH7-TA22 according to the method described in Reference Example 1. To assess the effects of combinations with Y296W, the prepared antibodies were compared for the FcγRIIIa-binding activity according to the method described in Reference Example 2 (Table 16).
(§1) Analysis of interaction between objective antibody and the FcγR was carried out using Biacore T100 (GE Healthcare). HBS-EP+ (GE Healthcare) was used as the running buffer, and the measurement temperature was set to 25° C. Chips produced by immobilizing the antigen peptide by the amine coupling method to a Series S Sencor Chip CM5 (GE Healthcare), or alternatively, chips produced by allowing preliminarily biotinylated antigen peptides to interact with and immobilize onto a Series S Sensor Chip SA (certified) (GE Healthcare) were used. Antibodies of interest were captured onto an antigen peptide-immobilized chip, and allowed to interact to each FcγR diluted with running buffer. To regenerate and repeatedly use the chip, the antibodies captured on the chip were washed off by reacting 10 mM glycine-HCl, pH 1.5.

FcγRIIIa [2] = target: T1, FcγRIIIa; test: ratio of SPR KDs: KD of GpH7-TA22/GpH7-B78/GpL16-k0 divided by KD of this antibody
Excerpt: Then, GpH7-TA54 (SEQ ID NO: 46) resulting from the introduction of Y296W into GpH7-TA22 was constructed, and expressed and prepared in combination with GpH7-B78 according to the method described in Reference Example 1. Furthermore, GpH7-TA58 (SEQ ID NO: 45) resulting from the introduction of Y296W into GpH7-B78 was constructed, and expressed and prepared in combination with GpH7-TA22 according to the method described in Reference Example 1. To assess the effect of combination with Y296W, the prepared antibodies were compared for the FcγRIIIa-binding activity according to the method described in Reference Example 2 (Table 17).
as §1

T1 sequence (P08637 17-208): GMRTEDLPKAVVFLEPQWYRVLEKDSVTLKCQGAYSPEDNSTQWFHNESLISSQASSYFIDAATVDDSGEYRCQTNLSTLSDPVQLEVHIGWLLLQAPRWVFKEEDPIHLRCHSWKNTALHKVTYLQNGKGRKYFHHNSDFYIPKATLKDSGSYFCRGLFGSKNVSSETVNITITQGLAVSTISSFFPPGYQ

| Binder | KD ratio (FcγRIIIa [1]) [fold] | KD ratio (FcγRIIIa [2]) [fold] |
| --- | --- | --- |
| GpH7-TA7/GpH7-TA58/GpL16-k0 (antibody, human IgG1, kappa, Anti-glypican-3 IgG1 heterodimer; L234Y/G236W/S298A in H1, S239D/A330L/I332E/Y296W in H2) heavy 1: QVQLVQSGAEVKKPGASVTVSCKASGYTFTDYEMHWIRQPPGEGLEWIGAIDPKTGDTAYSESFQDRVTLTADKSTSTAYMELSSLTSEDTAVYYCTRFYSYTYWGQGTLVTVSSASTKGPSVFPLAPSSKSTSGGTAALGCLVKDYFPEPVTVSWNSGALTSGVHTFPAVLQSSGLYSLSSVVTVPSSSLGTQTYICNVNHKPSNTKVDKKVEPKSCDKTHTCPPCPAPEYLWGPSVFLFPPKPKDTLMISRTPEVTCVVVDVSHEDPEVKFNWYVDGVEVHNAKTKPREEQYNATYRVVSVLTVLHQDWLNGKEYKCKVSNKALPAPIEKTISKAKGQPREPQVYTLPPSRKELTKNQVSLTCLVKGFYPSDIAVEWESNGQPENNYKTTPPVLDSDGSFFLYSKLTVDKSRWQQGNVFSCSVMHEALHNRYTQKSLSLSP heavy 2: QVQLVQSGAEVKKPGASVTVSCKASGYTFTDYEMHWIRQPPGEGLEWIGAIDPKTGDTAYSESFQDRVTLTADKSTSTAYMELSSLTSEDTAVYYCTRFYSYTYWGQGTLVTVSSASTKGPSVFPLAPSSKSTSGGTAALGCLVKDYFPEPVTVSWNSGALTSGVHTFPAVLQSSGLYSLSSVVTVPSSSLGTQTYICNVNHKPSNTKVDKKVEPKSCDKTHTCPPCPAPELLGGPDVFLFPPKPKDTLMISRTPEVTCVVVDVSHEDPEVKFNWYVDGVEVHNAKTKPREEQWNSTYRVVSVLTVLHQDWLNGKEYKCKVSNKALPLPEEKTISKAKGQPREPQVYTLPPSRDELTKNQVSLTCLVKGFYPSDIAVEWESNGQPENNYKTTPPVLDSDGSFFLYSKLTVDKSRWQQGNVFSCSVMHEALHNHYTQESLSLSP light: DIVMTQSPLSLPVTPGEPASISCQASESLVHSNRNTYLHWYLQKPGQSPQLLIYKVSNRFSGVPDRFSGSGSGTDFTLKISRVEAEDVGVYYCSQNTHVPPTFGQGTKVEIERTVAAPSVFIFPPSDEQLKSGTASVVCLLNNFYPREAKVQWKVDNALQSGNSQESVTEQDSKDSTYSLSSTLTLSKADYEKHKVYACEVTHQGLSSPVTKSFNRGEC | 1.2 |  |
| GpH7-TA22/GpH7-TA58/GpL16-k0 (antibody, human IgG1, kappa, Anti-glypican-3 IgG1 heterodimer; L234Y/G236W/S239D/S298A in H1, S239D/A330L/I332E/Y296W in H2) heavy 1: QVQLVQSGAEVKKPGASVTVSCKASGYTFTDYEMHWIRQPPGEGLEWIGAIDPKTGDTAYSESFQDRVTLTADKSTSTAYMELSSLTSEDTAVYYCTRFYSYTYWGQGTLVTVSSASTKGPSVFPLAPSSKSTSGGTAALGCLVKDYFPEPVTVSWNSGALTSGVHTFPAVLQSSGLYSLSSVVTVPSSSLGTQTYICNVNHKPSNTKVDKKVEPKSCDKTHTCPPCPAPEYLWGPDVFLFPPKPKDTLMISRTPEVTCVVVDVSHEDPEVKFNWYVDGVEVHNAKTKPREEQYNATYRVVSVLTVLHQDWLNGKEYKCKVSNKALPAPIEKTISKAKGQPREPQVYTLPPSRKELTKNQVSLTCLVKGFYPSDIAVEWESNGQPENNYKTTPPVLDSDGSFFLYSKLTVDKSRWQQGNVFSCSVMHEALHNRYTQKSLSLSP heavy 2: QVQLVQSGAEVKKPGASVTVSCKASGYTFTDYEMHWIRQPPGEGLEWIGAIDPKTGDTAYSESFQDRVTLTADKSTSTAYMELSSLTSEDTAVYYCTRFYSYTYWGQGTLVTVSSASTKGPSVFPLAPSSKSTSGGTAALGCLVKDYFPEPVTVSWNSGALTSGVHTFPAVLQSSGLYSLSSVVTVPSSSLGTQTYICNVNHKPSNTKVDKKVEPKSCDKTHTCPPCPAPELLGGPDVFLFPPKPKDTLMISRTPEVTCVVVDVSHEDPEVKFNWYVDGVEVHNAKTKPREEQWNSTYRVVSVLTVLHQDWLNGKEYKCKVSNKALPLPEEKTISKAKGQPREPQVYTLPPSRDELTKNQVSLTCLVKGFYPSDIAVEWESNGQPENNYKTTPPVLDSDGSFFLYSKLTVDKSRWQQGNVFSCSVMHEALHNHYTQESLSLSP light: DIVMTQSPLSLPVTPGEPASISCQASESLVHSNRNTYLHWYLQKPGQSPQLLIYKVSNRFSGVPDRFSGSGSGTDFTLKISRVEAEDVGVYYCSQNTHVPPTFGQGTKVEIERTVAAPSVFIFPPSDEQLKSGTASVVCLLNNFYPREAKVQWKVDNALQSGNSQESVTEQDSKDSTYSLSSTLTLSKADYEKHKVYACEVTHQGLSSPVTKSFNRGEC |  | 1 |
| GpH7-TA52/GpH7-B78/GpL16-k0 (antibody, human IgG1, kappa, Anti-glypican-3 IgG1 heterodimer; L234Y/G236W/S298A/Y296W in H1, S239D/A330L/I332E in H2) heavy 1: QVQLVQSGAEVKKPGASVTVSCKASGYTFTDYEMHWIRQPPGEGLEWIGAIDPKTGDTAYSESFQDRVTLTADKSTSTAYMELSSLTSEDTAVYYCTRFYSYTYWGQGTLVTVSSASTKGPSVFPLAPSSKSTSGGTAALGCLVKDYFPEPVTVSWNSGALTSGVHTFPAVLQSSGLYSLSSVVTVPSSSLGTQTYICNVNHKPSNTKVDKKVEPKSCDKTHTCPPCPAPEYLWGPSVFLFPPKPKDTLMISRTPEVTCVVVDVSHEDPEVKFNWYVDGVEVHNAKTKPREEQWNATYRVVSVLTVLHQDWLNGKEYKCKVSNKALPAPIEKTISKAKGQPREPQVYTLPPSRKELTKNQVSLTCLVKGFYPSDIAVEWESNGQPENNYKTTPPVLDSDGSFFLYSKLTVDKSRWQQGNVFSCSVMHEALHNRYTQKSLSLSP heavy 2: QVQLVQSGAEVKKPGASVTVSCKASGYTFTDYEMHWIRQPPGEGLEWIGAIDPKTGDTAYSESFQDRVTLTADKSTSTAYMELSSLTSEDTAVYYCTRFYSYTYWGQGTLVTVSSASTKGPSVFPLAPSSKSTSGGTAALGCLVKDYFPEPVTVSWNSGALTSGVHTFPAVLQSSGLYSLSSVVTVPSSSLGTQTYICNVNHKPSNTKVDKKVEPKSCDKTHTCPPCPAPELLGGPDVFLFPPKPKDTLMISRTPEVTCVVVDVSHEDPEVKFNWYVDGVEVHNAKTKPREEQYNSTYRVVSVLTVLHQDWLNGKEYKCKVSNKALPLPEEKTISKAKGQPREPQVYTLPPSRDELTKNQVSLTCLVKGFYPSDIAVEWESNGQPENNYKTTPPVLDSDGSFFLYSKLTVDKSRWQQGNVFSCSVMHEALHNHYTQESLSLSP light: DIVMTQSPLSLPVTPGEPASISCQASESLVHSNRNTYLHWYLQKPGQSPQLLIYKVSNRFSGVPDRFSGSGSGTDFTLKISRVEAEDVGVYYCSQNTHVPPTFGQGTKVEIERTVAAPSVFIFPPSDEQLKSGTASVVCLLNNFYPREAKVQWKVDNALQSGNSQESVTEQDSKDSTYSLSSTLTLSKADYEKHKVYACEVTHQGLSSPVTKSFNRGEC | 1.8 |  |
| GpH7-TA54/GpH7-B78/GpL16-k0 (antibody, human IgG1, kappa, Anti-glypican-3 IgG1 heterodimer; L234Y/G236W/S239D/S298A/Y296W in H1, S239D/A330L/I332E in H2) heavy 1: QVQLVQSGAEVKKPGASVTVSCKASGYTFTDYEMHWIRQPPGEGLEWIGAIDPKTGDTAYSESFQDRVTLTADKSTSTAYMELSSLTSEDTAVYYCTRFYSYTYWGQGTLVTVSSASTKGPSVFPLAPSSKSTSGGTAALGCLVKDYFPEPVTVSWNSGALTSGVHTFPAVLQSSGLYSLSSVVTVPSSSLGTQTYICNVNHKPSNTKVDKKVEPKSCDKTHTCPPCPAPEYLWGPDVFLFPPKPKDTLMISRTPEVTCVVVDVSHEDPEVKFNWYVDGVEVHNAKTKPREEQWNATYRVVSVLTVLHQDWLNGKEYKCKVSNKALPAPIEKTISKAKGQPREPQVYTLPPSRKELTKNQVSLTCLVKGFYPSDIAVEWESNGQPENNYKTTPPVLDSDGSFFLYSKLTVDKSRWQQGNVFSCSVMHEALHNRYTQKSLSLSP heavy 2: QVQLVQSGAEVKKPGASVTVSCKASGYTFTDYEMHWIRQPPGEGLEWIGAIDPKTGDTAYSESFQDRVTLTADKSTSTAYMELSSLTSEDTAVYYCTRFYSYTYWGQGTLVTVSSASTKGPSVFPLAPSSKSTSGGTAALGCLVKDYFPEPVTVSWNSGALTSGVHTFPAVLQSSGLYSLSSVVTVPSSSLGTQTYICNVNHKPSNTKVDKKVEPKSCDKTHTCPPCPAPELLGGPDVFLFPPKPKDTLMISRTPEVTCVVVDVSHEDPEVKFNWYVDGVEVHNAKTKPREEQYNSTYRVVSVLTVLHQDWLNGKEYKCKVSNKALPLPEEKTISKAKGQPREPQVYTLPPSRDELTKNQVSLTCLVKGFYPSDIAVEWESNGQPENNYKTTPPVLDSDGSFFLYSKLTVDKSRWQQGNVFSCSVMHEALHNHYTQESLSLSP light: DIVMTQSPLSLPVTPGEPASISCQASESLVHSNRNTYLHWYLQKPGQSPQLLIYKVSNRFSGVPDRFSGSGSGTDFTLKISRVEAEDVGVYYCSQNTHVPPTFGQGTKVEIERTVAAPSVFIFPPSDEQLKSGTASVVCLLNNFYPREAKVQWKVDNALQSGNSQESVTEQDSKDSTYSLSSTLTLSKADYEKHKVYACEVTHQGLSSPVTKSFNRGEC |  | 1.3 |
